# Laboratory results from PMC4317567.
# Biological target: fTHP-15 fluorogenic triple-helical peptide substrate
row,Substance,"Km of triple-helical peptidase activity (hydrolysis of fTHP-15), 27 °C, pH 7.5"
1,"MT1-MMP catalytic domain, wild type (enzyme)",8.9 µM
2,MT1-MMP ectodomain E392A (enzyme),1.6 µM
3,MT1-MMP ectodomain F360G (enzyme),1.7 µM
4,MT1-MMP ectodomain N347A (enzyme),0.79 µM
5,MT1-MMP ectodomain R330A (enzyme),0.98 µM
6,MT1-MMP ectodomain R343A (enzyme),4.3 µM
7,MT1-MMP ectodomain R345A (enzyme),1.7 µM
8,"MT1-MMP soluble ectodomain, wild type (C127S-substituted) (enzyme)",0.82 µM
